In PMC3978877 one finds inhibition of TNF-mediated killing of lung murine fibroblasts (TNFα trimer 5 pM, actinomycin D 2 μg/ml, muTNFR-Fc 50 nM to 0.1 pM, 24 h); half-maximal inhibitory concentration data, which are given here for one molecule.

The assay addresses TNFα (UniProt P06804).
Chain of UniProt P06804 (P06804 80-235): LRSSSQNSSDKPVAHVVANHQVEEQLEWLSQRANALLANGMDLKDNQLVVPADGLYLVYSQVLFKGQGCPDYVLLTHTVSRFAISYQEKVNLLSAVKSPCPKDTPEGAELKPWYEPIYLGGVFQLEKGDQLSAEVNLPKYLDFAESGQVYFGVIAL

B1: muTNFR-Fc (Fc fusion)
chain: VPAQVVLTPYKPEPGYECQISQEYYDRKAQMCCAKCPPGQYVKHFCNKTSDTVCADCEASMYTQVWNQFRTCLSCSSSCTTDQVEIRACTKQQNRVCACEAGRYCALKTHSGSCRQCMRLSKCGPGFGVASSRAPNGNVLCKACAPGTFSDTTSSTDVCRPHRICSILAIPGNASTDAVCAPESPTLSAIPRTLYVSQPEPTRSQPLDQEPGPSQTPSILTSLGSTPIIEQSTKGG
As to B1, the inhibition of TNF-mediated killing of lung murine fibroblasts (TNFα trimer 5 pM, actinomycin D 2 μg/ml, muTNFR-Fc 50 nM to 0.1 pM, 24 h); half-maximal inhibitory concentration is 0.1 nM.
